Laboratory results from publication PMC11205257.
Like-named read-outs stand apart in the source and are kept apart here.

Key:
[1] = target: GRAB CRF1.0 sensor (human (GPCR scaffold cDNA)); assay: other fluorescence titration
[2] = target: GRAB CRF1.0 sensor (human (GPCR scaffold cDNA)); assay: other fluorescence titration; remark: listed apart in the source

| EC50 [1] | EC50 [2] | Binder |
| --- | --- | --- |
| 18.6 nM | 33 nM | SEEPPISLDLTFHLLREVLEMARAEQLAQQAHSNRKLMEIIGK [corticotropin-releasing factor (CRF)] |
| – | 69 nM | DNPSLSIDLTFHLLRTLLELARTQSQRERAEQNRIIFDSVGK [urocortin 1 (UCN1)] |
